The record followed here is publication PMC11963761, “Structural basis for control of integrative and conjugative element excision and transfer by the oligomeric winged helix–turn–helix protein RdfS”.

Data set [1] deals with 6H-RdfS, N-terminal hexahistidine fusion of RdfS (Mesorhizobium japonicum R7A). The experiment in a line: SEC-SAXS; SEC-SY-SAXS (Australian Synchrotron) of 6H-RdfS bound to the 40-bp dsDNA attP_8; mass of the nucleoprotein complex from scattering. (In general: Size exclusion chromatography separates by hydrodynamic size, large species first.)
Data set [2] has as its target RdfS, recombination directionality factor of ICEMlSym^R7A (6H tag removed) (Mesorhizobium japonicum R7A). Put plainly: SEC; analytical gel filtration, Superdex 75 10/300 GL, 50 mM Tris–HCl, 300 mM NaCl, 5% (v/v) glycerol, pH 7.4, 4°C, 0.5 ml/min; protein at ∼7 mg/ml, 50 μl injected; no DNA.
The target in data set [3] is RdfS_(13–89), α1-truncated RdfS (Mesorhizobium japonicum R7A). The description is as above.
For data set [4], the system named is RdfS13-89 (Mesorhizobium japonicum R7A (ICEMlSymR7A)). The experiment in a line: EMSA. Conditions: EMSA: DNA master mix 50 mM Tris-HCl, 150 mM NaCl, 5% glycerol, pH 7.4, 1 unit poly[d(I-C)] (10 of 20 uL), 10 nM DNA; SPR: ReDCaT on Biacore T200, 1 uM protein …. A general note: A gel shift assay detects complexes by their altered migration in electrophoresis.
For data set [5], the target named is T1, RdfS (Mesorhizobium japonicum R7A (ICEMlSymR7A)) (UniProt Q7AL96).
T1 sequence: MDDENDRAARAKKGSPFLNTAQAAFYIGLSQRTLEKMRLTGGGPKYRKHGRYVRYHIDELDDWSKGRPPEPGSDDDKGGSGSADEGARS
The experiment in a line: EMSA. To be noted: EMSA: DNA master mix 50 mM Tris-HCl, 150 mM NaCl, 5% glycerol, pH 7.4, 1 unit poly[d(I-C)] (10 of 20 uL), 10 nM DNA; SPR: ReDCaT on Biacore T200, 1 uM protein ….

Data set [6] has as its target T2, 6H-RdfS (Mesorhizobium japonicum R7A …, UniProt Q7AL96 1-89).
T2 sequence: T1 sequence
Put plainly: SEC-SAXS; 4:1 protein:dsDNA; EMSA: DNA master mix 50 mM Tris-HCl, 150 mM NaCl, 5% glycerol, pH 7.4, 1 unit poly[d(I-C)] (10 of 20 uL), 10 nM DNA; SPR: ReDCaT on Biacore T200, 1 uM protein. To be noted: protein: recombinant; tags: N-terminal 6xHis; chain copies: 4; blunt.

In data set [1], “6H-RdfS, N-terminal hexahistidine fusion of RdfS (natural protein)” had a stoichiometry N of 4.

As to “RdfS, recombination directionality factor of ICEMlSym^R7A (6H tag removed) (natural protein)”, in data set [2], the stoichiometry N was found to be 4.

“RdfS_(13–89), α1-truncated RdfS (domain or fragment)” had a stoichiometry N in data set [3] of 2.

The molecule attP 283 bp gave a binding signal (% of RdfS affinity) in data set [4] of 50.

Consider “GCCGGCTCAAGCCCTCGCGCCGCAACTCGGCGCGGGGGTTCCCGCCGACGCTCGCCCGAAGGGGCGGCGAAAACTCCCACCCGACTCTTCGCCCGTCCCCACGACGACCTCGTTCGCCGATCCTCGCGGTTGCTTGTCCGAAGCGAAACGAGGACC (double strand) [PrdfS 162 bp]”, for which the binding entry in data set [5] is “binds”.

B1: attP_8 40-mer (dsDNA)
DNA 1: GAATTTCGGCGCAGTTGGTCCAACGAGGCGGGGGGCTGGT
DNA 2: ACCAGCCCCCCGCCTCGTTGGACCAACTGCGCCGAAATTC
With B1, in data set [6], the binding result is recorded as “binds”.

As a reminder, the stoichiometry N is a count of units in the complex or per binding partner.
